One experiment deals with T1, QH0692 gp120 (HIV-1 clade B, isolate QH0692, UniProt Q5G5V7, strain).
T1 construct: also called QH0692 Env; recombinant QH0692 Env; source: bought: Immune Technologies
In words: BLI. The note with it: both partners purified.

The next experiment concerns the target Q168a2 gp140 (HIV-1 clade A, Q168a2, UniProt Q8JDN0, strain). In words: BLI; antibody-capture: IgG (15 µg/mL in PBS) on anti-human IgG Fc capture biosensors; Env in solution at one concentration (1.2 µM in the legend, 1.02 µM in the methods) in 1x kinetics buffer (PBS, 0.01% BSA, 0.02% Tween 20, 0.005% NaN3). Conditions: both partners purified.
A further experiment concerns the target Q461e2 gp140 (HIV-1 clade A, Q461e2, UniProt Q8JDJ9, strain). The description is as above. Conditions: both partners purified.
The target of experiment [1] is 426c gp140 (HIV-1 clade C, 426c, UniProt M4Q8P8, strain). The experiment is described as above. Conditions: both partners purified.
A further experiment concerns the target T2, SF162 gp140 trimer (HIV-1 clade B, isolate SF162, UniProt P19550, strain).
T2 construct: also called trimeric SF162 gp140
In words: ELISA. Conditions: both partners purified.

The target in experiment [2] is T3, SF162 gp120 (HIV-1 clade B, isolate SF162, UniProt P19550). Briefly: cell-based or functional assay.
For experiment [3], the target named is 426c gp140 (HIV-1 clade C, 426c, UniProt M4Q8P8, strain). In words: BLI; antibody-capture: IgG (15 µg/mL in PBS) on anti-human IgG Fc capture biosensors; Env in solution at one concentration (1.2 µM in the legend, 1.02 µM in the methods) in 1x kinetics buffer (PBS, 0.01% BSA, 0.02% Tween 20, 0.005% NaN3). Conditions: both partners purified. The source holds these as a separate data set.

For another experiment, the target named is T4, QH0692 gp140 trimer (HIV-1 clade B, isolate QH0692, UniProt Q5G5V7, strain).
T4 construct: also called trimeric QH0692 gp140
Briefly: ELISA. Conditions: both partners purified.

A further experiment addresses T5, HXB2 gp120 (HIV-1 clade B, isolate HXB2, UniProt P04578).
T5 construct: also called HXBc2; HXB2 Env; source: bought: Immune Technologies
In words: ELISA. The note with it: both partners purified.

Experiment [4] concerns the target T3, SF162 gp120. In words: ELISA. The note with it: both partners purified.

B1: NIH45-46 chimeric IgG, germline heavy chain with mature light chain (antibody, V domains shown)
VH: not shown
VL: EIVLTQSPATLSLSPGETAIISCRTSQSGSLAWYQQRPGQAPRLVIYSGSTRAAGIPDRFSGSRWGADYNLSISNLESGDFGVYYCQQYEFFGQGTKVQVD
B1: in the experiment with QH0692 gp120, the binding result was “no binding (tested: 100 nM; less than 0.2 nM shift)”.

B2: germline IgG b12 (antibody, V domains shown)
VH: QVQLVQSGAEVKKPGASVKVSCKASGYTFTSYAMHWVRQAPGQRLEWMGWINAGNGNTKYSQKFQGRVTITRDTSASTAYMELSSLRSEDTAVYYCARVGPYCGGDSPQDNYYMDVWGKGTTVTVSS
VL: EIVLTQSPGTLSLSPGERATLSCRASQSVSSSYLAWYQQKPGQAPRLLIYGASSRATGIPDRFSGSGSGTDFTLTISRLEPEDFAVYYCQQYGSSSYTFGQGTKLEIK
notes: also called germline b12; soluble germline version of IgG b12
As for B2, the binding result with Q168a2 gp140 is “no binding (tested: 1.2 µM)”; with Q461e2 gp140 it was “no binding (tested: 1.2 µM)”; with 426c gp140 [1], “no binding (tested: 1.2 µM)”; with SF162 gp140 trimer, “no binding (tested: 30 µg/mL)”.

B3: 3BNC60 chimeric IgG, germline heavy chain with mature light chain (antibody, V domains shown)
VH: not shown
VL: DIQMTQSPSSLSARVGDTVTITCQANGYLNWYQQRRGKAPKLLIYDGSKLERGVPARFSGRRWGQEYNLTINNLQPEDVATYFCQVYEFIVPGTRLDLK
notes: also called gHC/mLC (3BNC60)
For the molecule B3, in the experiment with QH0692 gp120, the binding result is “no binding (tested: 100 nM; less than 0.2 nM shift)”.

B4: mature IgG b12 (antibody, V domains shown)
VH: QVQLVQSGAEVKKPGASVKVSCQASGYRFSNFVIHWVRQAPGQRFEWMGWINPYNGNKEFSAKFQDRVTFTADTSANTAYMELRSLRSADTAVYYCARVGPYSWDDSPQDNYYMDVWGKGTTVIVSS
VL: EIVLTQSPGTLSLSPGERATFSCRSSHSIRSRRVAWYQHKPGQAPRLVIHGVSNRASGISDRFSGSGSGTDFTLTITRVEPEDFALYYCQVYGASSYTFGQGTKLERK
notes: also called mature b12; mature b12 IgG
As for B4, the “neutralisation of SF162 virions (luciferase reporter cells), IC50” value with SF162 gp120 [2] worked out at 0.01 µg/mL. Further, the binding result with 426c gp140 [3], with SF162 gp140 trimer and with QH0692 gp140 trimer was “binds” in each case.

B5: b12 IgG, germline heavy chain with G100W, paired with the mature light chain (antibody, V domains shown)
VH: QVQLVQSGAEVKKPGASVKVSCKASGYTFTSYAMHWVRQAPGQRLEWMGWINAGNGNTKYSQKFQGRVTITRDTSASTAYMELSSLRSEDTAVYYCARVGPYCWGDSPQDNYYMDVWGKGTTVTVSS
VL: EIVLTQSPGTLSLSPGERATFSCRSSHSIRSRRVAWYQHKPGQAPRLVIHGVSNRASGISDRFSGSGSGTDFTLTITRVEPEDFALYYCQVYGASSYTFGQGTKLERK
Regarding B5, the binding result with HXB2 gp120 and with SF162 gp120 [4] was “no binding (tested: 30 µg/mL)” in each case.

B6: b12 IgG, germline heavy chain with S31N/A52P/G53Y/G100W, paired with the mature light chain (antibody, V domains shown)
VH: QVQLVQSGAEVKKPGASVKVSCKASGYTFTNYAMHWVRQAPGQRLEWMGWINPYNGNTKYSQKFQGRVTITRDTSASTAYMELSSLRSEDTAVYYCARVGPYCWGDSPQDNYYMDVWGKGTTVTVSS
VL: EIVLTQSPGTLSLSPGERATFSCRSSHSIRSRRVAWYQHKPGQAPRLVIHGVSNRASGISDRFSGSGSGTDFTLTITRVEPEDFALYYCQVYGASSYTFGQGTKLERK
In the case of B6, the binding result in the experiment with HXB2 gp120 is listed as “binds”; in the experiment with SF162 gp120 [4], “no binding (tested: 30 µg/mL)”.

The values are drawn from paper PMC3536657 (PLoS Pathogens, 2013).
